Source: patent publication US20250011363A1, “OPTIMIZED SHORTENED PEPTIDE THAT BINDS TO ACETYLCHOLINE RECEPTOR, AND USE THEREOF” (SKINMED CO., LTD., priority 2021, published 2025)

B1: 5mer-856 (peptide)
peptide: KPPDR
B2: 5mer-1156 (peptide)
peptide: KKMNK
B3: 5mer-857 (peptide)
peptide: KMENR
B4: 5mer-1157 (peptide)
peptide: KTSHR
B5: 5mer-858 (peptide)
peptide: RIMGR
B6: 5mer-1158 (peptide)
peptide: KYNPR
B7: 5mer-859 (peptide)
peptide: KHNAR
B8: 5mer-1159 (peptide)
peptide: KKWKK
B9: 5mer-860 (peptide)
peptide: RCHAK
B10: 5mer-1160 (peptide)
peptide: KETWR
B11: 5mer-861 (peptide)
peptide: KTKIR
B12: 5mer-1161 (peptide)
peptide: KCHDR
B13: 5mer-862 (peptide)
peptide: KKNAK
B14: 5mer-1162 (peptide)
peptide: KIKKK
B15: 5mer-863 (peptide)
peptide: REANR
B16: 5mer-1163 (peptide)
peptide: KKSKR
B17: 5mer-864 (peptide)
peptide: KYHPR
B18: 5mer-1164 (peptide)
peptide: RFPWR
B19: 5mer-865 (peptide)
peptide: RMMER
B20: 5mer-1165 (peptide)
peptide: RNMNR
B21: 5mer-866 (peptide)
peptide: RINWR
B22: 5mer-1166 (peptide)
peptide: KTHEK
B23: 5mer-867 (peptide)
peptide: KDSWK
B24: 5mer-1167 (peptide)
peptide: KESWK
B25: 5mer-868 (peptide)
peptide: KMHFK
B26: 5mer-1168 (peptide)
peptide: RHHWR
B27: 5mer-869 (peptide)
peptide: KKHPK
B28: 5mer-1169 (peptide)
peptide: KDTPK
B29: 5mer-870 (peptide)
peptide: RCKVK
B30: 5mer-1170 (peptide)
peptide: KHSEK
B31: 5mer-871 (peptide)
peptide: RHSHR
B32: 5mer-1171 (peptide)
peptide: RCSWK
B33: 5mer-872 (peptide)
peptide: RKKWK
B34: 5mer-1172 (peptide)
peptide: KIWWR
B35: 5mer-873 (peptide)
peptide: RYNFR
B36: 5mer-1173 (peptide)
peptide: KECKR
B37: 5mer-874 (peptide)
peptide: RIHMR
B38: 5mer-1174 (peptide)
peptide: KYSGK
B39: 5mer-875 (peptide)
peptide: KHCNK
B40: 5mer-1175 (peptide)
peptide: RDMIR
B41: 5mer-876 (peptide)
peptide: KETAR
B42: 5mer-1176 (peptide)
peptide: KIHFK
B43: 5mer-877 (peptide)
peptide: RFSMR
B44: 5mer-1177 (peptide)
peptide: KIPVR
B45: 5mer-878 (peptide)
peptide: KHTER
B46: 5mer-1178 (peptide)
peptide: RFDNR
B47: 5mer-879 (peptide)
peptide: KDCMK
B48: 5mer-1179 (peptide)
peptide: RMNVR
B49: 5mer-880 (peptide)
peptide: RCDKK
B50: 5mer-1180 (peptide)
peptide: KETAK
B51: 5mer-881 (peptide)
peptide: RNDAK
B52: 5mer-1181 (peptide)
peptide: KKAKR
B53: 5mer-882 (peptide)
peptide: REEGR
B54: 5mer-1182 (peptide)
peptide: REKWK
B55: 5mer-883 (peptide)
peptide: KMSAK
B56: 5mer-1183 (peptide)
peptide: RHAPK
B57: 5mer-884 (peptide)
peptide: KIWEK
B58: 5mer-1184 (peptide)
peptide: RDSMK
B59: 5mer-885 (peptide)
peptide: RHCNR
B60: 5mer-1185 (peptide)
peptide: KPTGR
B61: 5mer-886 (peptide)
peptide: RMMFR
B62: 5mer-1186 (peptide)
peptide: KMWVK
B63: 5mer-887 (peptide)
peptide: KTPVR
B64: 5mer-1187 (peptide)
peptide: KHHIR
B65: 5mer-888 (peptide)
peptide: KKCIR
B66: 5mer-1188 (peptide)
peptide: KPSGK
B67: 5mer-889 (peptide)
peptide: KTPGR
B68: 5mer-1189 (peptide)
peptide: RKMDK
B69: 5mer-890 (peptide)
peptide: KKHFK
B70: 5mer-1190 (peptide)
peptide: RFSEK
B71: 5mer-891 (peptide)
peptide: RKKMK
B72: 5mer-1191 (peptide)
peptide: RMDWK
B73: 5mer-892 (peptide)
peptide: RKPMR
B74: 5mer-1192 (peptide)
peptide: RYAKK
B75: 5mer-893 (peptide)
peptide: RIKIK
B76: 5mer-1193 (peptide)
peptide: KHWFK
B77: 5mer-894 (peptide)
peptide: KMSPR
B78: 5mer-1194 (peptide)
peptide: RDNGK
B79: 5mer-895 (peptide)
peptide: RFTKK

Target: acetylcholine receptor
Test: SPR, AchR immobilised on CM5 chip, peptide at 10 uM

Going from B1 to B2, the Binding affinity (RU) falls from 23 RU to 13 RU.

First: B3
Second: B4
The Binding affinity (RU) of the first is higher: 23 RU for the first, 21 RU for the second.

Going from B5 to B6, the Binding affinity (RU) falls from 33 RU to 23 RU.

Going from B7 to B8, the Binding affinity (RU) falls from 26 RU to 17 RU.

First: B9
Second: B10
The Binding affinity (RU) of the first is higher: 31 RU for the first, 14 RU for the second.

First: B11
Second: B12
The Binding affinity (RU) of the first is lower: 20 RU for the first, 21 RU for the second.

Compared with B13, B14 is lower in Binding affinity (RU): 19 RU for the first, 15 RU for the second.

Going from B15 to B16, the Binding affinity (RU) falls from 16 RU to 12 RU.

Going from B17 to B18, the Binding affinity (RU) rises from 25 RU to 33 RU.

B19 and B20 are the same in Binding affinity (RU): 21 RU for the first, 21 RU for the second.

Compared with B21, B22 is higher in Binding affinity (RU): 11 RU for the first, 32 RU for the second.

Compared with B23, B24 is lower in Binding affinity (RU): 14 RU for the first, 12 RU for the second.

First: B25
Second: B26
The Binding affinity (RU) of the first is lower: 18 RU for the first, 31 RU for the second.

Compared with B27, B28 is lower in Binding affinity (RU): 31 RU for the first, 29 RU for the second.

Compared with B29, B30 is higher in Binding affinity (RU): 25 RU for the first, 28 RU for the second.

B31 and B32 are the same in Binding affinity (RU): 21 RU for the first, 21 RU for the second.

Compared with B33, B34 is lower in Binding affinity (RU): 29 RU for the first, 25 RU for the second.

Going from B35 to B36, the Binding affinity (RU) falls from 32 RU to 30 RU.

First: B37
Second: B38
The Binding affinity (RU) of the first is higher: 27 RU for the first, 25 RU for the second.

First: B39
Second: B40
The Binding affinity (RU) of the first is higher: 33 RU for the first, 30 RU for the second.

First: B41
Second: B42
The Binding affinity (RU) of the first is lower: 16 RU for the first, 25 RU for the second.

Going from B43 to B44, the Binding affinity (RU) rises from 17 RU to 20 RU.

Compared with B45, B46 is lower in Binding affinity (RU): 24 RU for the first, 22 RU for the second.

First: B47
Second: B48
The Binding affinity (RU) of the first is lower: 13 RU for the first, 18 RU for the second.

Going from B49 to B50, the Binding affinity (RU) rises from 17 RU to 27 RU.

Going from B51 to B52, the Binding affinity (RU) falls from 31 RU to 22 RU.

First: B53
Second: B54
The Binding affinity (RU) of the first is higher: 18 RU for the first, 15 RU for the second.

First: B55
Second: B56
The Binding affinity (RU) of the first is higher: 16 RU for the first, 13 RU for the second.

Going from B57 to B58, the Binding affinity (RU) falls from 28 RU to 14 RU.

First: B59
Second: B60
The Binding affinity (RU) of the first is lower: 19 RU for the first, 30 RU for the second.

Going from B61 to B62, the Binding affinity (RU) falls from 21 RU to 12 RU.

Compared with B63, B64 is lower in Binding affinity (RU): 30 RU for the first, 27 RU for the second.

First: B65
Second: B66
The Binding affinity (RU) of the first is higher: 31 RU for the first, 30 RU for the second.

First: B67
Second: B68
The Binding affinity (RU) of the first is higher: 25 RU for the first, 11 RU for the second.

Going from B69 to B70, the Binding affinity (RU) falls from 33 RU to 32 RU.

Going from B71 to B72, the Binding affinity (RU) rises from 24 RU to 30 RU.

Compared with B73, B74 is lower in Binding affinity (RU): 29 RU for the first, 28 RU for the second.

Compared with B75, B76 is higher in Binding affinity (RU): 18 RU for the first, 22 RU for the second.

B77 and B78 are the same in Binding affinity (RU): 18 RU for the first, 18 RU for the second.

Binder B79 has a Binding affinity (RU) of 18 RU.
